Among the targets are HLA-A*02:02; HLA-A*02:01; HLA-A*02:03; HLA-A*02:06; HLA-A*68:02.
Holding throughout (assay): IEDB peptide-MHC binding, cellular MHC/competitive/fluorescence; ≥ and ≤ were set here for values at or beyond the usual limits of such assays
Where [1] appears, read: source organism: Vaccinia virus WR.
Setting [2] is: source organism: Mammarenavirus guanaritoense.
Where [3] appears, read: source organism: Influenza A virus.
[4] abbreviates: source organism: Mammarenavirus machupoense.

These results are taken from the Immune Epitope Database (IEDB).

With KLTKDRKML, the IC50 with HLA-A*02:02 (setting [1]) is 24.5 µM; in the assay with HLA-A*02:01 (setting [1]), 56.6 µM; with HLA-A*02:03 (setting [1]), 36.4 µM; with HLA-A*02:06 (setting [1]), at least 70 µM; in the assay with HLA-A*68:02 (setting [1]) it was at least 70 µM.
FASADNHPKM: the IC50 was at least 70 µM with HLA-A*02:02 (setting [1]); at least 70 µM in the assay with HLA-A*02:01 (setting [1]); 47.4 µM with HLA-A*02:03 (setting [1]); at least 70 µM with HLA-A*02:06 (setting [1]); at least 70 µM with HLA-A*68:02 (setting [1]).
Regarding RVTKRDESSI, the IC50 amounted to 12.3 µM with HLA-A*02:02 (setting [1]); 55.9 µM in the assay with HLA-A*02:01 (setting [1]); 10.7 µM with HLA-A*02:03 (setting [1]); 22.2 µM with HLA-A*02:06 (setting [1]); 8.81 µM with HLA-A*68:02 (setting [1]).
Take KNAGYLVGR: the IC50 with HLA-A*02:02 (setting [2]) was 45.7 µM; with HLA-A*02:01 (setting [2]) it was 23 µM; with HLA-A*02:03 (setting [2]), at least 70 µM; in the assay with HLA-A*02:06 (setting [2]), at least 70 µM; with HLA-A*68:02 (setting [2]) it was at least 70 µM.
As to LAIKNYYRKT, the IC50 is 36.8 µM with HLA-A*02:02 (setting [1]); at least 70 µM in the assay with HLA-A*02:01 (setting [1]); 7.18 µM in the assay with HLA-A*02:03 (setting [1]); at least 70 µM with HLA-A*02:06 (setting [1]); 39.7 µM in the assay with HLA-A*68:02 (setting [1]).
In the case of TIESAKTKI, the IC50 with HLA-A*02:02 (setting [1]) amounted to 16.3 µM; with HLA-A*02:01 (setting [1]) it was 15.2 µM; with HLA-A*02:03 (setting [1]), 54.1 µM; with HLA-A*02:06 (setting [1]), 51.4 µM; with HLA-A*68:02 (setting [1]) it was 52.6 µM.
For RINLLVQYGA, in that order: 10.3 µM, 9.16 µM, 15.3 µM, 7.65 µM and 21 µM.
With ITDQTVNICI, the IC50 with HLA-A*02:02 (setting [1]) was at least 70 µM; with HLA-A*02:01 (setting [1]), 7.2 µM; with HLA-A*02:03 (setting [1]) it was at least 70 µM; with HLA-A*02:06 (setting [1]) it was 10.4 µM; with HLA-A*68:02 (setting [1]), 51.2 µM.
Consider ELTSNCTRT, for which the IC50 was at least 70 µM in the assay with HLA-A*02:02 (setting [1]); 48.7 µM with HLA-A*02:01 (setting [1]); at least 70 µM with HLA-A*02:03 (setting [1]); 46.2 µM with HLA-A*02:06 (setting [1]); at least 70 µM in the assay with HLA-A*68:02 (setting [1]).
Regarding NVKDYSIV, the IC50 is at least 70 µM with HLA-A*02:02 (setting [3]); at least 70 µM in the assay with HLA-A*02:01 (setting [3]); 6.53 µM in the assay with HLA-A*02:03 (setting [3]); at least 70 µM with HLA-A*02:06 (setting [3]); 11.3 µM with HLA-A*68:02 (setting [3]).
With PLPSLEYGA, the IC50 amounted to 11.4 µM with HLA-A*02:02 (setting [1]); 14.7 µM with HLA-A*02:01 (setting [1]); 18.9 µM in the assay with HLA-A*02:03 (setting [1]); 42.5 µM with HLA-A*02:06 (setting [1]); 30.9 µM with HLA-A*68:02 (setting [1]).
Turning to SAAFEDLRLL, the IC50 in the assay with HLA-A*02:02 (setting [3]) is 21.4 µM; in the assay with HLA-A*02:01 (setting [3]), 42.7 µM; with HLA-A*02:03 (setting [3]), 13.6 µM; in the assay with HLA-A*02:06 (setting [3]), 23.5 µM; in the assay with HLA-A*68:02 (setting [3]), at least 70 µM.
The matching figures for QARQMVQAMRA: 24.9 µM, at least 70 µM, at least 70 µM, 55.2 µM and 20 µM.
On to LAYYNSCML, for which the IC50 with HLA-A*02:02 (setting [1]) was 12.8 µM; with HLA-A*02:01 (setting [1]), 46.1 µM; with HLA-A*02:03 (setting [1]) it was 15.5 µM; with HLA-A*02:06 (setting [1]), 21.5 µM; in the assay with HLA-A*68:02 (setting [1]), 13.3 µM.
The matching figures for TIEDDKIVTM: 17 µM, 13.3 µM, 17.2 µM, 26.1 µM and 38.8 µM.
For GIDTSNNIA, in that order: 49.7 µM, 17.3 µM, at least 70 µM, 25.2 µM and at least 70 µM.
For STQQNKLVI, in that order: 53 µM, 41.1 µM, 14.4 µM, at least 70 µM and 25.7 µM.
Consider DVCKKNLDL, for which the IC50 with HLA-A*02:02 (setting [1]) worked out at 25.4 µM; with HLA-A*02:01 (setting [1]) it was 19.5 µM; with HLA-A*02:03 (setting [1]) it was 8.02 µM; with HLA-A*02:06 (setting [1]) it was 16.3 µM; with HLA-A*68:02 (setting [1]) it was 40.6 µM.
For ELVMDKNHAI, the IC50 is 14.2 µM with HLA-A*02:02 (setting [1]); at least 70 µM with HLA-A*02:01 (setting [1]); at least 70 µM in the assay with HLA-A*02:03 (setting [1]); at least 70 µM in the assay with HLA-A*02:06 (setting [1]); 19.5 µM with HLA-A*68:02 (setting [1]).
On to AVPNGTLV, for which the IC50 in the assay with HLA-A*02:02 (setting [3]) is 10.8 µM; with HLA-A*02:01 (setting [3]) it was at least 70 µM; with HLA-A*02:03 (setting [3]) it was at least 70 µM; in the assay with HLA-A*02:06 (setting [3]), 10.6 µM; with HLA-A*68:02 (setting [3]), 42.9 µM.
For the sequence YIKDLKHAT, the IC50 with HLA-A*02:02 (setting [1]) is 18.5 µM; in the assay with HLA-A*02:01 (setting [1]), 8.08 µM; in the assay with HLA-A*02:03 (setting [1]) it was at least 70 µM; with HLA-A*02:06 (setting [1]), 39.4 µM; in the assay with HLA-A*68:02 (setting [1]), at least 70 µM.
For the sequence VMDKNHAIFT, the IC50 with HLA-A*02:02 (setting [1]) is 18.7 µM; with HLA-A*02:01 (setting [1]) it was 8.7 µM; with HLA-A*02:03 (setting [1]) it was 11.5 µM; with HLA-A*02:06 (setting [1]) it was at least 70 µM; in the assay with HLA-A*68:02 (setting [1]), 13 µM.
For IIRVTTELNI, in that order: 9.96 µM, 7.07 µM, 8.76 µM, 13.7 µM and 16.4 µM.
YNCKCCWFA: the 50% inhibitory concentration (IC50) with HLA-A*02:02 (setting [4]) is 16.1 µM; with HLA-A*02:01 (setting [4]), 42.9 µM; in the assay with HLA-A*02:03 (setting [4]) it was 31.9 µM; with HLA-A*02:06 (setting [4]), at least 70 µM; with HLA-A*68:02 (setting [4]), 52.9 µM.

What is called IC50 is the midpoint of a concentration-inhibition curve. High values mean weaker potency, low ones greater potency.
